From paper PMC7910268

Legend:
purified protein [1] = substrate: NC(=O)c1ccc[n+]([C@@H]2O[C@H](COP(=O)(O)OP(=O)(O)OC[C@H]3O[C@@H](n4cnc5c(N)ncnc54)[C@H](O)[C@@H]3O)[C@@H](O)[C@H]2O)c1; assay: purified protein; assay type: biochemical, Sphingopyxis fribergensis; conditions: phenylacetaldehyde 0.5 mmol L^-1, pH 7.7, aldehyde made from styrene oxide by SOI-1CP, varied: cofactor
purified protein [2] = substrate: O=CCc1ccccc1; assay: purified protein; assay type: biochemical, Sphingopyxis fribergensis; conditions: NAD+ 2.5 mmol L^-1, pH 7.7, aldehyde made from styrene oxide by SOI-1CP

B1: FeaB-Kp5.2 (Sphingopyxis fribergensis) (protein)
chain: MATAQSYVTPLSAVSTFIGHDHGLFIDGDWRAAKGTERLDVFDPSTGEPIASVANASPDDVDHAVRAAHKAFESGVWSGIAPAERERLLLKFADLVEANAEELAQIETLNQGKSINISRFVDVGGAPAYMRYVAGLTTKITGETFDVSIGAIPGARFTASTRREPIGVVGAIAPWNFPMMIGLWKIMPALAAGCTVVLKPSEVTPLTSLRLASLAKEAGLPAGVLNVITGDGKAGKALVDHPLVAKITFTGSTATGKAIARSASDRLLRTSLELGGKNPAIFLADAPIEQAVQGAILGGFFNNGQVCAASSRLYIARAIYDPFIKALAHAVDGMTMGPGLDTAAQINPVVSLQHRAKILDHIARARQDGAQIVAGGESPDRAGYYVRPTVVVGAGAQLAISRQEVFGPLVTVTPFDDEDEAINLANDTEMGLTASLWTNDLKKTMDLVPRIKAGTVWVNCHNLIDPNMPFGGYKESGIGRDFGIHSLDGYSEVKSVCIAH
Purified protein [1]
  Km: 500 ± 300 µM
  Vmax: 17.8 µmol/min/mg
  kcat: 62.5 s⁻¹
Purified protein [2]
  Km: 22 ± 5 µM
  Vmax: 14.8 µmol/min/mg
  kcat: 52 s⁻¹
